Data on twelve sequences can be found in a protein production outcome set (Wang et al. 2014).
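Note: failed if final PepcDB status was selected cloned or expressed and not failed if soluble or beyond.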

The data set in a line: label from the status in PepcDB records.
Turning to “IAAGGSHVEAAPQEEWKKHFIHTGELGSAEFASVMSHTTSAMKSVFEQVNAPYSGMDPKALEDAINAVDLDNKNAPLKSVIDDVAELVAKNAIFTQHPDCIAHLHTPPLMPAVAAEAMIAALNQSMDSWDQASSATYVEQKVVNWLCDKYDLSEKADGIFTSGGTQSNQMGLMLARDWIADKLSGHSIQKLGLPDYADKLRIVCSKKSHFTVQKSASWMGLGEKAVMTVDANADGTMDITKLDEVIAQAKAEGLIPFAIVGTAGTTDHGAIDDLDFIADMAVKHDMWMHVDGAYGGALILSSHKSRLKGVERAHSISVDFHKLFYQTISCGALLVNDKSNFKFLLHHADYLNREHDELPNLVDKSIATTKRFDALKVFMTMQNVGPKALGDMYDHLLAQTLEVADMIRTNDQFELLAEPSLSTVLFRATHETADLDELNKALRLEALTRGIAVLGETIVDGKTALKFTILNPCLTTSDFESLLSKINMLAVELV”, the protein production entry is listed as “not failed”.
Turning to “MKYKLLVLDVDGTLLNDEKEITPRTLATLLKVQQMGVHIVLASGRPTYGILPLAKKLELGNYGGYILSYNGAQVINAKNGEVLLERRINPEMLPYLEKKARKNGFAIFTYTEDRMIADQADNEHILQEAFLNRMELIEEPEFSVAVDFAPSKCMLVSDDEEALIGLEEHWKKRLNGALDVFRSEPYFLEVLPCGIDKSTSLGALLSHLDITPEEIIVIGDGVCDVSMIQFAGLGIAMGNAQDSVKVCADVVTASNEEDGVALAVEKAILSEIRPAEIPLDQLNERARHALMGNLGIQYTYASEDRVEATMPVDERTRQPFGILHGGATLALAETVAGLGSMILCQPDEIVVGMQVSGNHMSSAHEGDTVRAVGTIIHKGRSSHVWNVDVFTSTDKLVSSIRVVNSILKKR”, the protein production result is listed as “failed”.
In the case of “MSLSEIKRKFDAVSGKYDEQRRKFIPCFDDFYGVSVSIASVDTENPDILDLGAGTGLLSAFLMEKYPEATFTLVDMSEKMLEIAKNRFRGNLKVKYIEADYSKYDFEEKYDMVVSALSIHHLEDEDKKELYKRSYSILKESGIFINADLVHGETAFIENLNKTIWRQYVENSGLTEEEIAAGYERSKLDKDIEMNQQLNWLKEAGFRDVSCIYKYYQFAVMFGRKTEGHHHHHH” it was “not failed”; in that of “MGTRGNEEEEDWFSDAREEVSSVSDCNSEVADDFVQATGDLDLWTMNPESVTNRRQKFFQSMGFSFKKRDFDLDLDLLGDSSSDHIPVSKQLTSVSETDHEEEEKEEKLLRNESTSSGSSVSSFSTASLAEAFSFRGSFQNRAKNIDDQILLTRDYSSNSSSIAEGLSESDSSRFDSYGDLPNSPMSRYEESPKKGAKGWLKKLGVLTHVLDKTEECTDGESTRSSIRRQLTRVQSFKKQFKELSSLCVGQEFSAHDGSIVVMKFSHDGKYLASAGEDCVVRVWNIIEDERRDNEFEVAESDSSCVYFGMNDKSQIEPLKTENEKIEKSRGLLRKKSESTCAVLPSKVFSISETPQHEFRGHTGEILDLSWSEKGFLLSSSVDETVRLWRVGSSDECIRVFSHKSFVTCVAFNPVDDNYFISGSIDGKVRIWDVSQFRVVDYTDIRQIVTALCYRPDGKGAVVGSMTGECRFYHTTDNQLQLDRDISLHGKKKVPNKRITGFQFFPGDSDKVMVTSADSQIRIICGVDTICKLKKASSLRTTLMSPTFASFTSDGKHIVSTIEESGIHVWDFSQPNKKASSQKPKTIRSYEGFLSRNVSVAIPWLGQGKEDSIIADLEKSFAHFPVPLDYFSPMKGATTWPEEKLGVVAGTAAAAVSATVSSRSKLRLLKSVCQNVHGSTPHLWGLVIVTATWDGSIRVFHNYGLPIRV”, “failed”.
The entry for “MSTASYAFRDNLTMLRRNLLHARRYPSLTLNLLLTPVILLLLFVYVFGNVMSAGINGGHANRADYVDYLVPGILLLTVAMTSLGTAVAVCTDMTEGIMARFRTMAISRASVLIGHVIGSVLQTLMALVLVLGIGLAIGFRPDASPVEWIAAAALMALTSLAMTWLAVGIGLVSPNPEGASNIGTPLVMLPFLSSAFVPVDAMPGWFRWFAEYQPFSPLIETLRGLLLGSGIGTRNAVLAVAWCLGLSLLGYLWSKARFNREPRH” is “failed”.
The entry for “MTPNKEDYLKCIYEIGIDLHKITNKEIAARMQVSPPAVTEMIKRMKSENLILKDKECGYLLTDLGLKLVSELYRKHRLIEVFLVHHLDYTSDQIHEEAEVLEHTVSDLFVERLDKLLGFPKTCPHGGTIPAKGELLVEINNLPLADIKEAGAYRLTRVHDSFDILHYLDKHSLHIGDQLQVKQFDGFSNTFTILSNDEDLQVNMDIAKQLYVEKIN” is “not failed”.
For “MENEKIWIKELKEKRLAYGVSQNKLAVASHITRPYLSDIETGKAVPTQQVKEDLLNALERFNPDNPLEMLFDYVRIRFPTNDVAQIIGEVLRLNMDYMLHEDFGYYSYPEHYRFGDIVVLVSHDVSKGVLLELKGKGCRQFENFLLAQHRSWYDFFQDCMEHKGIFKRLDLAINDKTGILNIPDLAKKCKQEECISVFRSFKNYRSGELVHRDEKPYMGNTLYIGSLKSEVYFCIYEKDYEQYVKNDVPLEDAEVKNRFEIRLKNDRATQAMKDLLAHQQAEKTAFEIINRYIRFADKDDTKRRSDWKTNERWEWFIGKNRGALRLTTQPEPYSFERTLNWLHHQVAPTLKIASILDVLNGTTIISTMIQEAKLTEKHEKLIEQQHLAMEDLIT”, the protein production entry is reported as “not failed”.
In the case of “MNYQDVLDFWFAPDHTNFWFAKDSLFDDEIRTQFSTVHQQATQAELWSWRQTVEGRLAEIIVLDQFSRNLYRDQAQAFAQDSMALALAQEAITQQLDAQLSPEQRSFLYMPFMHSESKLIHEFALKLFQKLGNEINLSFEKKHKVIIDQFGRYPHRNAILGRQSTPEELEFLTQPNSHF” it was “failed”; in that of “LLTSQIVDQYAEHIFYNSGAVGMALVVIDNNQVVNRSFGETQPGNNIRPRPDSLIRIASITKLMTSEIMVKLADDGIVKLTDPLKKYAPKGVNVPSYSAKQPIRLLHLASHTSGLPREQPGGPQKRPVFTWPTKDNRWQWLKLAKVTVPPGVKAAYSNLAYDLLADALSRAAGKPYAHLLRDKITAPLGMKNTTLTPTAEQCKRLMIGVGSSRCGNTVAAAGSGGIYSTPEDMQHWMQQFLASDNSAPKRSAKREQALYFQRGDLVSLKGMDVAGQADALGLGWVYMAPKADLPGIMQKTGGGGGFITYMAMVPEKNIGVFVVVTRSQLTKFSNMSDGVNQLVAELVK”, “not failed”; in that of “MTATIPPLTPTVTPSNPDRPIADLKLQDIIKTLPKECFEKKASKAWASVLITLGAIAVGYLGIIYLPWYCLPITWIWTGTALTGAFVVGHDCGHRSFAKKRWVNDLVGHIAFAPLIYPFHSWRLLHDHHHLHTNKIEVDNAWDPWSVEAFQASPAIVRLFYRAIRGPFWWTGSIFHWSLMHFKLSNFAQRDRNKVKLSIAVVFLFAAIAFPALIITTGVWGFVKFWLMPWLVYHFWMSTFTIVHHTIPEIRFRPAADWSAAEAQLNGTVHCDYPRWVEVLCHDINVHIPHHLSVAIPSYNLRLAHGSLKENWGPFLYERTFNWQLMQQISGQCHLYDPEHGYRTFGSLKKV”, “failed”.
For the sequence “MKGKLQNIHPLGMTIIIGTLFARFATSMSIPFLAIYLTTVKGVSAGMTGAIIGTSALVGVFASFIGGNLSDRFGRKMIMLWSMIVWMFVFIGFSLADHVLSFFLLNALNGLCRSFFEPTSRALLSDLTKPEYRLLVYNLRYGAINVGVAIGPIVGLQIGSAKSTIPFLVAAGVYILYTAILAFQFKKYPMEKKKVSTEKPVTMLNAMRILRKDIVFLVALVGIILSNCGFSHLTTTVSQYFANAHIFQDGVKVFSYMLALNAIVVVVIQYPVIQICKKYTPLVSIMVGTLFVSGGLFGFGIIESTLGAAICTIIFTIGEVLMFSMTDVFIDDIAVAHLKGTYFGAMGFSGIGAVIGPWFGGVLLDYYGYQNGFVVFSALAIFSTVAFPVLLVTKSLLKKRYDGNSNIELHAK”, the protein production result is given as “failed”.
The entry for “MFQAIQQKLLLMPSGKKNLLSLGMKTAITRVFSALFAFLLTLIVSRTTDASTSGQFFFLFNLVSLTAIISQRGFDVALVRFNAIAFSNGDIQQQSDNYWTALTRSITFCFMAAVTLFVGFYLFPNQLNQTNSPIVAITLALMCVPFLVLGQTNSRVLQASKMVVPSLFALQLGVSVLMVLFIMGLSTLHLQNINSLMTALLLASLIVSIASTTKWFSSGQYQKPTPTTNIELISSAKQVWIGSIFTNILQWGSIVIAGFFISTTELGLLAAAQRTSLLIGFVLITINFVVAPMFASLFKEGKLDKLRNLSRWACRANIGAALLPVLVCTLFPEFVMQLFGDEFLAAAPLLVVLSLGQLVNIATGSVGFLLLMSGHERTMKYITICSGTISIALLVFLSQSYGVLGAAWAMAIGMAIQNLAALYFVKRYLGFFPVG” is “failed”.
